Assay results: patent publication US10654925B2, “Anti-marinobufagenin antibodies and uses thereof” (priority 2018, dated 2020)

Legend:
[1] = Competitive ELISA, relative CTS specificity, DIG as competitor; format: binding; conditions: competition with immobilized MBG-BSA; normalized to MBG = 100%
Method: (§1) The specificity (relative affinity) of anti-MBG antibodies for MBG relative to various cardiotonic steroids (CTSs) was determined in a competitive ELISA. Each anti-MBG antibody was tested for its binding to immobilized MBG in the presence of free MBG, resibufogenin (RBG), cinobufagin (CINO), ouabain (OUB) or digoxin (DIG) as a competitor. A constant amount of an anti-MBG antibody (typically 1-5 μg/mL) and varying concentrations of each CTS (from 10^−12M to 10^−5M) were pre-incubated before being added to the MBG-BSA-coated wells. After washing of the wells, an anti-human Fc, HRP-conjugated secondary antibody (at 1:5000 dilution) was added to the wells and incubated at 37° C. for 1 hr. After washing of the wells, an appropriate HRP reagent (e.g., TMB ultra, Thermo Fisher) was added to the wells. OD at 450 nm was measured by a microplate reader. MBG at 10 μM was assumed to be 100% competed, and MBG at 1 pM was assumed to be 0% competed. The data was plotted as a titration of antibody-antigen binding relative to free CTS concentration in the competition reaction to determine the free CTS concentration (μM) giving 50% maximal binding of antibody to immobilized MBG. The relative specificity of an antibody for a CTS was normalized to MBG=100%.

[2] = test system: human umbilical cord venous endothelial cells (HUVEC); assay: Reversal of MBG inhibition of HUVEC cell proliferation (3H-thymidine); format: cell-based; conditions: MBG 2 nM, antibody 2.5-10 μg/mL, 48 hr; FIG. 3b
Method: MBG (2 nM) was incubated with an antibody (20 μg/mL in FIG. 3a with human anti-MBG mAbs, or varying concentrations (2.5-10 μg/mL) in FIG. 3b with humanized anti-MBG mAbs) prior to addition to cultured human umbilical cord venous endothelial cells (HUVEC). After 48 hr, DNA synthesis was assessed by incorporation of ^3H-thymidine.
HUVEC cells in endothelial cell growth medium were plated onto 96-well plates. The next day, the cells were pretreated with various antibodies (2.5-20 μg/mL) and then incubated with 2 nM MBG for 48 hr. [^3H]-Thymidine was added to each well. [^3H]-Thymidine-labeled DNA was assayed by harvesting the cells and assaying for ^3H using a PerkinElmer Wallac Tailux liquid scintillation counter. […] Means were tested for significance using Student's t-test.

Na^+K^+-ATPase (NKA) = assay: Na^+K^+-ATPase activity (Malachite Green Phosphate Assay); format: biochemical, rat; conditions: anti-MBG antibodies 1-100 μg/mL; FIG. 4
Method: Na^+K^+-ATPase (NKA) was purified from rat heart. The NKA was collected as the sarcolemmal/particulate (SLP) fraction and frozen.
Na^+K^+-ATPase activity was measured as follows: aliquots of SLP were mixed with Reaction Buffer (200 mM Tris-HCl, pH 7.5, 200 mM NaCL, 30 mM MgCl2, 60 mM KCl, 10 mM EGTA, 100 μg/mL PMSF, 2 μg/mL pepstatin A, and 2 μg/mL aprotinin). Reactions were performed with or without MBG and with or without anti-MBG antibodies (1-100 μg/mL). Ouabain was used as positive control for NKA inhibition. Tubes were prewarmed, and ATP was added. Reactions were stopped and were placed on ice.
Phosphate was assayed using the Malachite Green Phosphate Assay. Phosphate standard or sample was added to each well of a 96-well plate, followed by Reagent A. Reagent B was added, with mixing and incubation. OD was then read at 630 nm in a microplate spectrophotometer.

[3] = Competitive ELISA, free CTS competitors overall (summary and footnote); format: binding; conditions: competitors RBG, CINO, OUB, DIG; Table 2
Method: as §1

[4] = Direct ELISA antigen binding of humanized anti-MBG; conditions: 2 μg/ml MBG-conjugated BSA coated; OD 450 nm; among the 6 humanized antibodies; FIG. 1a, 1b
Method: The antigen binding of humanized anti-MGB was assayed in a direct Elisa assay. 2 μg/ml of MBG-conjugated BSA was coated in the Elisa plate. After blocking with 1% BSA, 2-fold dilution series of humanized anti-MBG was added to the plate. After washing, the bound antibody was detected by adding anti-human Fc HRP conjugate, and quantified by adding the TMB substrate. OD absorption at 450 nm was measured in a microplate reader.

[5] = Competitive ELISA, relative CTS specificity, free MBG as competitor; format: binding; conditions: competition with immobilized MBG-BSA; normalized to MBG = 100%
Method: as §1

[6] = test system: pregnant Sprague-Dawley rats; assay: DOCA/saline rat model of pre-eclampsia; format: in vivo; conditions: antibodies 2.2 mg/kg/d i.p. days 16-18 in PDS rats
Method: Female Sprague-Dawley rats (200-250 g, Charles River Laboratories) were acclimatized for 1 week, and mated with male Sprague-Dawley rats (275-300 g). Pregnancy was confirmed by the presence of vaginal plugs or by examination of vaginal smears. Each rat was housed separately.
Five groups of rats were studied (n=10 per group): Group 1 (NP): normal pregnant rats; Group 2 (PDS): pregnant rats injected i.p. initially with 12.5 mg of DOCA in a depot form, followed by a weekly i.p. injection of 6.5 mg of DOCA, and whose drinking water is replaced with 0.9% saline; Group 3 (NPM): Normal pregnant rats given daily injections of MBG (7.65 μg per kg body weight per day) once pregnancy was established on day four of the experiment; Group 4 (PDS-3E9): rats administered DOCA and saline as for Group 2, and also given the murine anti-MBG antibody 3E9 (2.2 mg per kg body weight per day) on days 16, 17, and 18 of pregnancy; and Group 5 (PDS-H3L2): rats administered DOCA and saline as for Group 2, and also given the humanized anti-MBG antibody H3L2 (2.2 mg per kg body weight per day) on days 16, 17, and 18 of pregnancy.
Systolic blood pressure (BP) was measured by tail cuff at days 17-19. At least 3 readings are taken after BP has stabilized, and the mean of these values was calculated. The reported BP values are the mean of the daily measurements. At 18-20 days of pregnancy, 24-hour urine was collected in the absence of food to avoid contamination of the measurement of the protein amount in urine by any fallen food particles. Each rat was housed separately in a metabolic cage during this portion of the study. The 24-hour protein excretion was measured and was normalized to creatinine. The rats were sacrificed after the last measurement on days 18-20, and blood samples were taken. The number of fetal pups was counted and examined. The mean number of pups and any developmental or histological abnormalities in the pups were assessed. Statistical analysis was performed using analysis of variance and Tukey's post hoc test. A p value ≤0.05 was considered statistically significant.

[7] = test system: PKC-δ in the nucleus of primary rat cardiac fibroblasts; assay: Inhibition of MBG-induced PKC-δ nuclear translocation (Western blot); conditions: MBG 10 nM; FIG. 2b
Method: MBG was incubated with an anti-MBG antibody prior to addition to cultured primary rat cardiac fibroblasts. Nuclei were isolated 30 min later and analyzed for amount of PKC-6.

B1: H3L2: humanized anti-MBG antibody, VH H3 (SEQ ID NO: 11) with VL L2 (SEQ ID NO: 13) (antibody, V domains shown)
VH: EVQLQESGPGLVKPSETLSLTCTVSGDSITSGYWNWIRQPPGKGLEYMGYISYSGTTYYNPSLKSRITISRDTSKNQYSLKLSSVTAADTAVYYCARARYGYGFDYWGQGTLVTVSS
VL: DVVMTQSPLSLPVTLGQPASISCRSSQSIVHSNRNTYLEWYQQRPGQSPRLLIYKVSNRFSGVPDRFSGSGSGTDFTLKISRVEAEDVGVYYCFQGSHVPLTFGGGTKVEIK
modifications: Humanized VH sequence; Humanized VL sequence
Rel. CTS Specificity as % of MBG Binding: DIG [1]: 0%
MBG inhibition of HUVEC cell proliferation, humanized mAbs [2]: significantly reduced
inhibitory effect of MBG on NKA in presence of antibody (Na^+K^+-ATPase (NKA)): reduce the inhibitory effect of MBG on NKA
reaction with CTS competitor molecules [3]: did not react with any of the CTS competitor molecules
binding affinity in direct ELISA [4]: highest binding affinity
Rel. CTS Specificity as % of MBG Binding: MBG [5]: 100%
% Malformed Pups ([6]; MBG 7.65 μg/kg/d in NPM rats): 0%
No. Pups ([6]; MBG 7.65 μg/kg/d in NPM rats): 12.9 ± 3.2
Urine Protein ([6]; normalized to creatinine, 18-20 days of pregnancy, MBG 7.65 μg/kg/d in NPM rats): 3.5 ± 0.7 mg/24 h
Blood Pressure-Final ([6]; tail cuff, 17-19 d of gestation, MBG 7.65 μg/kg/d in normal pregnant rats (NPM), N = 10): 109.4 ± 11 mm Hg
PKC-δ translocation into the nucleus, MBG plus antibody [7]: reduced
